In article PMC10397247:
One block for each binder: values may come before it.

Key:
P1bH1 = target: T1, P1bH1; experiment: two-hybrid library CCNG1;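 note: natural log of median RNA to DNA barcode read ratio; higher means stronger binding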
T1 chain: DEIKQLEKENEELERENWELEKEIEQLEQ

P11bH1 = target: T2, P11bH1; experiment: two-hybrid library CCNG1;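 note: natural log of median RNA to DNA barcode read ratio; higher means stronger binding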
T2 chain: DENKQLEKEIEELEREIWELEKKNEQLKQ

P9bH1 = target: T3, P9bH1; experiment: two-hybrid library CCNG1;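 note: natural log of median RNA to DNA barcode read ratio; higher means stronger binding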
T3 chain: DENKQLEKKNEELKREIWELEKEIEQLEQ

P3bH1 = target: T4, P3bH1; experiment: two-hybrid library CCNG1;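 note: natural log of median RNA to DNA barcode read ratio; higher means stronger binding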
T4 chain: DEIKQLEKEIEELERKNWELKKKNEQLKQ

P2bH1 = target: T5, P2bH1; experiment: two-hybrid library CCNG1;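 note: natural log of median RNA to DNA barcode read ratio; higher means stronger binding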
T5 chain: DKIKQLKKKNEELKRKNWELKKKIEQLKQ

P5bH1 = target: T6, P5bH1; experiment: two-hybrid library CCNG1;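 note: natural log of median RNA to DNA barcode read ratio; higher means stronger binding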
T6 chain: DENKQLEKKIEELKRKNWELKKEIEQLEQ

P12bH1 = target: T7, P12bH1; experiment: two-hybrid library CCNG1
T7 chain: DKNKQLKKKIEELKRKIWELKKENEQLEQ

P8bH1 = target: T8, P8bH1; experiment: two-hybrid library CCNG1
T8 chain: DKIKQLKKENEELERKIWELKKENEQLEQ

P6bH1 = target: T9, P6bH1; experiment: two-hybrid library CCNG1
T9 chain: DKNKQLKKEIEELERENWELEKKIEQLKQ

P4bH1 = target: T10, P4bH1; experiment: two-hybrid library CCNG1
T10 chain: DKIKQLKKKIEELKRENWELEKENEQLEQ

P7bH1 = target: T11, P7bH1; experiment: two-hybrid library CCNG1
T11 chain: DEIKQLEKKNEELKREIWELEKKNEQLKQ

4H3651-AA = target: T12, 4H3651-AA; experiment: two-hybrid library CCmax; conditions: mean of both orientations
T12 chain: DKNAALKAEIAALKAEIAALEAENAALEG

4H355-AA = target: T13, 4H355-AA; experiment: two-hybrid library CCmax; conditions: mean of both orientations
T13 chain: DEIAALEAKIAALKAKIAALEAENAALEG

4H3020-AA = target: T14, 4H3020-AA; experiment: two-hybrid library CCmax; conditions: mean of both orientations
T14 chain: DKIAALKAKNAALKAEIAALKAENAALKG

4H895-AA = target: T15, 4H895-AA; experiment: two-hybrid library CCmax; conditions: mean of both orientations
T15 chain: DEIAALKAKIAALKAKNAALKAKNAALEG

4H2898-AA = target: T16, 4H2898-AA; experiment: two-hybrid library CCmax; conditions: mean of both orientations
T16 chain: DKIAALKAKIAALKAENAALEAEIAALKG

4H2600-AA = target: T17, 4H2600-AA; experiment: two-hybrid library CCmax; conditions: mean of both orientations
T17 chain: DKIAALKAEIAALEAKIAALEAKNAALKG

4H3782-AA = target: T18, 4H3782-AA; experiment: two-hybrid library CCmax; conditions: mean of both orientations
T18 chain: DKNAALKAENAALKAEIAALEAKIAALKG

GCN2_T = experiment: two-hybrid library CCmax
4H535-AA = target: T19, 4H535-AA; experiment: two-hybrid library CCmax; conditions: mean of both orientations
T19 chain: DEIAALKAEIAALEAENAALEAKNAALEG

4H3365-AA = target: T20, 4H3365-AA; experiment: two-hybrid library CCmax; conditions: mean of both orientations
T20 chain: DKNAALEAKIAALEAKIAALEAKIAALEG

4H3705-AA = target: T21, 4H3705-AA; experiment: two-hybrid library CCmax; conditions: mean of both orientations
T21 chain: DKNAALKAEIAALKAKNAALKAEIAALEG

4H_APH = target: T22, 4H_APH; experiment: two-hybrid library CCmax; conditions: mean of both orientations
T22 chain: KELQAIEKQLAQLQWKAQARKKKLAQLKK

4H465-AA = target: T23, 4H465-AA; experiment: two-hybrid library CCmax; conditions: mean of both orientations
T23 chain: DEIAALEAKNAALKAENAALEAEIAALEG

4H2750-AA = target: T24, 4H2750-AA; experiment: two-hybrid library CCmax
T24 chain: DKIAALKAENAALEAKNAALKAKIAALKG

4H1257-AA = target: T25, 4H1257-AA; experiment: two-hybrid library CCmax; conditions: mean of both orientations
T25 chain: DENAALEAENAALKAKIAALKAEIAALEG

4H140-AA = target: T26, 4H140-AA; experiment: two-hybrid library CCmax; conditions: mean of both orientations
T26 chain: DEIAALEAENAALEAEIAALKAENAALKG

4H2721-AA = target: T27, 4H2721-AA; experiment: two-hybrid library CCmax; conditions: mean of both orientations
T27 chain: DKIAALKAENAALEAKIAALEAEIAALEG

4H58-AA = target: T28, 4H58-AA; experiment: two-hybrid library CCmax; conditions: mean of both orientations
T28 chain: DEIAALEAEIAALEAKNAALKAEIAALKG

4H486-AA = target: T29, 4H486-AA; experiment: two-hybrid library CCmax; conditions: mean of both orientations
T29 chain: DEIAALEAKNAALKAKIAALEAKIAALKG

4H1802-AA = target: T30, 4H1802-AA; experiment: two-hybrid library CCmax; conditions: mean of both orientations
T30 chain: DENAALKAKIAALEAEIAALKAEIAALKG

4H_GCN4 = experiment: two-hybrid library CCmax
4H1136-AA = target: T31, 4H1136-AA; experiment: two-hybrid library CCmax
T31 chain: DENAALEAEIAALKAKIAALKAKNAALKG

4H_BCR = target: T32, 4H_BCR; experiment: two-hybrid library CCmax; conditions: mean of both orientations
T32 chain: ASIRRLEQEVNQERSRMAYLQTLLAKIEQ

4H342-bN = target: T33, 4H342-bN; experiment: two-hybrid library CCNG1
T33 chain: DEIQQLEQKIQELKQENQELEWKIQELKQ

4H48-bN = target: T34, 4H48-bN; experiment: two-hybrid library CCNG1
T34 chain: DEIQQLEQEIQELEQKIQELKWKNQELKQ

4H2696-bN = target: T35, 4H2696-bN; experiment: two-hybrid library CCNG1
T35 chain: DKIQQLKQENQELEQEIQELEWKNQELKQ

4H2937-bN = target: T36, 4H2937-bN; experiment: two-hybrid library CCNG1
T36 chain: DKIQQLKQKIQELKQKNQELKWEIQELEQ

4H491-bN = target: T37, 4H491-bN; experiment: two-hybrid library CCNG1
T37 chain: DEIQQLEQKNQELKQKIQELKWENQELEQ

4H2944-bN = target: T38, 4H2944-bN; experiment: two-hybrid library CCNG1
T38 chain: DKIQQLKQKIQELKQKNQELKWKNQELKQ

4H2883-bN = target: T39, 4H2883-bN; experiment: two-hybrid library CCNG1
T39 chain: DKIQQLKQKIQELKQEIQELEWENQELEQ

Sequence of 4H_GCN4 (chain, as listed by the source): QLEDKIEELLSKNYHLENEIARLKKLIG

interaction score (P1bH1): -2.02 | interaction score (P11bH1): 0 | interaction score (P9bH1): -0.076 | interaction score (P3bH1): -0.0263 | interaction score (P2bH1): 1.25 | interaction score (P5bH1): 1.1 | interaction score (P12bH1): 0.0252 | interaction score (P8bH1): 0.239 | interaction score (P6bH1): 0.725 | interaction score (P4bH1): 1.12 | interaction score (P7bH1): -0.507
Binder: DENKQLEKEIEELEREIWELEKKNEQLKQ [P11bH1]

interaction score (4H3651-AA): 2.2 | interaction score (4H355-AA): 0.718 | interaction score (4H3020-AA): -1.2 | interaction score (4H895-AA): -1.31 | interaction score (4H2898-AA): -0.29 | interaction score (4H2600-AA): 0.398 | interaction score (4H3782-AA): -0.406 | interaction score (GCN2_T): -1.68 | interaction score (4H535-AA): 1.79 | interaction score (4H3365-AA): -1.36 | interaction score (4H3705-AA): -1.5 | interaction score (4H_APH): -1.64 | interaction score (4H465-AA): -1.44 | interaction score (4H2750-AA): -1.46 | interaction score (4H1257-AA): 0.673 | interaction score (4H140-AA): -1.41 | interaction score (4H2721-AA): -1.15 | interaction score (4H58-AA): -0.193 | interaction score (4H486-AA): -0.319 | interaction score (4H1802-AA): -1.42 | interaction score (4H_GCN4): -1.83 | interaction score (4H1136-AA): -0.12 | interaction score (4H_BCR): -1.73
Binder: DENAALEAEIAALKAKIAALKAKNAALKG [4H1136-AA]

interaction score (4H342-bN): -0.885 | interaction score (4H48-bN): -1.05 | interaction score (4H2696-bN): -0.134 | interaction score (4H2937-bN): 0.131 | interaction score (4H491-bN): 0.0322 | interaction score (4H2944-bN): -0.274 | interaction score (4H2883-bN): 1.32
Binder: DKIQQLKQENQELEQEIQELEWKNQELKQ [4H2696-bN]
